These results are taken from paper PMC3792671.

For this assay, the target named is RepSTK1(1-269), residues 1-269 of the rolling-circle replication initiator protein RepSTK1 of plasmid pSTK1 (Geobacillus stearothermophilus (plasmid pSTK1)). The experiment in a line: SEC-MALS; analytical gel filtration on Superdex S75 10/300, 50 µl protein loaded, 50 mM Tris-HCl pH 7.5, 500 mM KCl; eluate through DAWN HELIOS II MALLS detector; dimer. For orientation: In gel filtration, larger molecules generally elute earlier.

For orientation: stoichiometry N means the number of molecules, sites or subunits per partner or assembly. Consider “RepSTK1(1-269), residues 1-269 of the rolling-circle replication initiator protein RepSTK1 of plasmid pSTK1 (domain or fragment)”, for which the stoichiometry N stood at 2.
